Measurements from the supplement of paper PMC10724198.
± gives the standard deviation of the averaged measurements.
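Also: PSI is a weighted mean of sequencing reads over stability bins, variants kept only with over 10 reads, mCherry proximal and sfGFP distal, peptide attached via GGGS linker.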

These sequences were tested on Saccharomyces cerevisiae (assay: protein stability index of tFT-peptide fusion (C-terminal peptide) (PSI (0-1 scale)); higher = more stable (slower turnover)). Settings: genetic background: wild type; temperature: 30 C.
Protocol: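 Multiplexed protein stability (MPS) profiling in S. cerevisiae. Random 12-aa peptides (tFT-X12 library) are fused to the C-terminus of a sfGFP-mCherry tandem fluorescent timer, after mCherry and a GGGS linker. Cells are FACS-sorted into 8 mCherry/sfGFP bins and deep-sequenced. The protein stability index (PSI) is the read-weighted bin average, scaled from 0 (unstable) to 1 (stable). Only peptides with >10 reads are reported; cells were grown at 30 °C in SC-His with glucose.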
DDFSHVEVFERV was tested, and the protein stability index was 0.7 ± 0.062. With DDGGQPKVLLCV the protein stability index was 0.6688 ± 0.0011. For DDGRVSLGEQSG, the protein stability index was 0.673 ± 0.036. With DEFCSHSLAGSS the protein stability index was 0.649 ± 0.024. With DEGFSRSGLLLK the protein stability index was 0.6921 ± 0.003. Work on DEPGTEGAKPWR yielded a protein stability index of 0.727 ± 0.074. Work on DETELTQRTKRV yielded a protein stability index of 0.656 ± 0.017. With DFEVGPMGGFRC the protein stability index was 0.674 ± 0.057. DFGYSLRIIRSE was tested, and the protein stability index was 0.746 ± 0.0099. With DFLDPLQDEWPC the protein stability index was 0.805 ± 0.039. DFPIEEILGLVG was tested, and the protein stability index was 0.65 ± 0.05. DFQRPGSFVFNG showed a protein stability index of 0.658 ± 0.048. DFRAGPLPCRPP was tested, and the protein stability index was 0.6952 ± 0.0041. For DGCRCQSMSKIS, the protein stability index was 0.553 ± 0.18. For DGGAGGLGLLGG, the protein stability index was 0.651 ± 0.0081. DGGAGWLGLLGG was tested, and the protein stability index was 0.713 ± 0.034. For DGGALGVKGCDR, the protein stability index was 0.694 ± 0.054. DGGVGGGAPRVR showed a protein stability index of 0.78 ± 0.14. DGGVPGVMVVGE showed a protein stability index of 0.644 ± 0.024. With DGLGLLVGAGVG the protein stability index was 0.623 ± 0.085. With DGRTYGHYKVVA the protein stability index was 0.697 ± 0.027. In the case of DGSIGASPGRGL, the protein stability index is reported as 0.695 ± 0.015. DGSKRDWFYNSA was tested, and the protein stability index was 0.725 ± 0.059. For DGVRGDVVTGYL, the protein stability index was 0.7131 ± 0.0057. For DHLQGRPDITDI, the protein stability index was 0.72 ± 0.09. DIAYPRITDSRC showed a protein stability index of 0.714 ± 0.045. Work on DIQINENIYKNK yielded a protein stability index of 0.687 ± 0.048. For DISSSILEIFTS, the protein stability index was 0.7031 ± 0.0032. DKERRSKNRERR gave a protein stability index of 0.698 ± 0.07. With DKKHRAPGIKIV the protein stability index was 0.5008 ± 0.0018. Work on DKKPVQVIIIRK yielded a protein stability index of 0.667 ± 0.1. In the case of DKNRNKKKKYER, the protein stability index is reported as 0.641 ± 0.038. Sequence DLGIFVSQQIEV has a protein stability index of 0.6065 ± 0.0048. DLIYRLHTANWR showed a protein stability index of 0.809 ± 0.034. In the case of DLLTRAYPWPAE, the protein stability index is reported as 0.692 ± 0.024. DLRHLLVPVPRI gave a protein stability index of 0.7066 ± 0.0022. DLSCCVFLCLFF gave a protein stability index of 0.513 ± 0.044. Sequence DLSLQSLRSPIT has a protein stability index of 0.672 ± 0.022. Sequence DLSNVITKMFVI has a protein stability index of 0.6542 ± 0.0036. DLTITFYKSGQL gave a protein stability index of 0.715 ± 0.032. Work on DLVLVSSQMPFA yielded a protein stability index of 0.683 ± 0.039. With DMGGLKACRGVG the protein stability index was 0.5695 ± 0.0028. With DMTCSMEQHEDN the protein stability index was 0.663 ± 0.019. Work on DMTVICDVAGQT yielded a protein stability index of 0.652 ± 0.019. For DNAFATAYWIVV, the protein stability index was 0.647 ± 0.054. For DNCIANLESGSL, the protein stability index was 0.691 ± 0.008. DNHGWKVEGRLL was tested, and the protein stability index was 0.686 ± 0.015. For DNKGKDEESERR, the protein stability index was 0.709 ± 0.038. In the case of DPAASNTTTRRL, the protein stability index is reported as 0.686 ± 0.064. Sequence DPAKRTLTRSRR has a protein stability index of 0.673 ± 0.0079. With DPARNDTTTETI the protein stability index was 0.666 ± 0.027. DPDPNHATGKIC was tested, and the protein stability index was 0.616 ± 0.014. For DPGGLSNYSRAS, the protein stability index was 0.67 ± 0.036. For DPHRTRPRITLP, the protein stability index was 0.715 ± 0.044. With DPISNVDVTKIR the protein stability index was 0.6571 ± 0.0044. Sequence DPPLRPSSLPPP has a protein stability index of 0.653 ± 0.0084. DPPSVPSPLPTS was tested, and the protein stability index was 0.689 ± 0.016. In the case of DQDAPNRPVDSS, the protein stability index is reported as 0.695 ± 0.018. Work on DQKSGCPVRIYR yielded a protein stability index of 0.623 ± 0.029. DQMVILSHYSVR was tested, and the protein stability index was 0.683 ± 0.038. For DQVGWVAGVDAR, the protein stability index was 0.707 ± 0.048. For DRGGDVGRCAGF, the protein stability index was 0.677 ± 0.011. In the case of DRLPRHLPSLLP, the protein stability index is reported as 0.715 ± 0.037. DRMYDELFTKCC showed a protein stability index of 0.619 ± 0.031. DRNKRDERTSEE gave a protein stability index of 0.744 ± 0.026. With DRPRPLPTPLPP the protein stability index was 0.5905 ± 0.0021. In the case of DRQRVGYRGPPH, the protein stability index is reported as 0.639 ± 0.096. DRVFLVDMGVMW showed a protein stability index of 0.6632 ± 0.0014. Work on DRYSVGCGVSEG yielded a protein stability index of 0.7038 ± 0.002. Work on DSAWSWTLLFVG yielded a protein stability index of 0.63 ± 0.026. In the case of DSIVHSFYIPLL, the protein stability index is reported as 0.666 ± 0.048. With DSKRIQSRLYYS the protein stability index was 0.66 ± 0.027. With DSRSPSTTLIPL the protein stability index was 0.6623 ± 0.0018. For DSSPIESAVAPS, the protein stability index was 0.716 ± 0.023. In the case of DSTMWDALSVCV, the protein stability index is reported as 0.621 ± 0.026. DSVFTKALEPAW showed a protein stability index of 0.722 ± 0.04. DTDHSSNCELPG was tested, and the protein stability index was 0.696 ± 0.083. With DTGGGPQTSRWD the protein stability index was 0.715 ± 0.17. DTSGNQLQDPDI gave a protein stability index of 0.706 ± 0.029. Sequence DVAYSSSNAVHR has a protein stability index of 0.669 ± 0.045. For DVESGRVDLGEE, the protein stability index was 0.787 ± 0.15. Work on DVFLFPGVYFRM yielded a protein stability index of 0.594 ± 0.012. Work on DVGFGWGCGVGG yielded a protein stability index of 0.736 ± 0.014. DVGFGWGGGVGG was tested, and the protein stability index was 0.76 ± 0.014. For DVGSPFSISVQS, the protein stability index was 0.647 ± 0.045. Work on DVLLRGAVQPIC yielded a protein stability index of 0.659 ± 0.0098. Sequence DVRNVCNISDEV has a protein stability index of 0.654 ± 0.022. For DVVGGCEKWWER, the protein stability index was 0.734 ± 0.049. For DVVLVSPCGQMW, the protein stability index was 0.725 ± 0.21. Work on DWSGTISVSSLR yielded a protein stability index of 0.672 ± 0.1. In the case of DWTNLTVITGDT, the protein stability index is reported as 0.674 ± 0.035. For DYCARQRLLDQF, the protein stability index was 0.685 ± 0.11. DYPQWWEEQHVP gave a protein stability index of 0.797 ± 0.019. Sequence DYSRCGCRLSGK has a protein stability index of 0.677 ± 0.03. EAGESKNVDSLL showed a protein stability index of 0.638 ± 0.0081. For EAIQDCERGPCW, the protein stability index was 0.698 ± 0.0081. Work on EAKKNNIVEKQR yielded a protein stability index of 0.681 ± 0.015. EAPRTPPSVPVN showed a protein stability index of 0.7866 ± 0.0051. EAVRASSPAGLP was tested, and the protein stability index was 0.7017 ± 0.0023. ECCDSGLCWLTF gave a protein stability index of 0.754 ± 0.034. ECGRWLGRGVRG gave a protein stability index of 0.735 ± 0.045. EDFKTKQKKKKE showed a protein stability index of 0.709 ± 0.077. EDKVRGQGSRHN showed a protein stability index of 0.722 ± 0.011. EDRYIGITRYKD showed a protein stability index of 0.682 ± 0.11. In the case of EDSKLVSRLSRS, the protein stability index is reported as 0.712 ± 0.082. With EDTYSGKGSRGV the protein stability index was 0.774 ± 0.047. Work on EEECSTPWGIRG yielded a protein stability index of 0.635 ± 0.048. For EELTVLCGLLKT, the protein stability index was 0.64 ± 0.04. With EEQKKIRKRPEK the protein stability index was 0.69686 ± 0.00066. Sequence EERGGDNVTVCG has a protein stability index of 0.745 ± 0.031. Sequence EERLGIIVRSDR has a protein stability index of 0.635 ± 0.079. Work on EFAYQSRYKVGR yielded a protein stability index of 0.694 ± 0.058. Work on EFFSDLLEMIRL yielded a protein stability index of 0.725 ± 0.033. EFSILLPLPFFR was tested, and the protein stability index was 0.656 ± 0.076. EGDGLGGGGQGG showed a protein stability index of 0.685 ± 0.0069. EGDQSRMTQPRG gave a protein stability index of 0.647 ± 0.034. Sequence EGGARGCGEGSQ has a protein stability index of 0.656 ± 0.015. With EGGEWGSFGSAV the protein stability index was 0.704 ± 0.0094. EGGGGGGAPRVR was tested, and the protein stability index was 0.752 ± 0.093. For EGGGGGPGDARR, the protein stability index was 0.663 ± 0.025. EGLSYSFGDCPM was tested, and the protein stability index was 0.754 ± 0.03. EGRAAETFVCAI was tested, and the protein stability index was 0.6429 ± 0.0055. With EGRSVWVVGRAV the protein stability index was 0.652 ± 0.045. For EGSPIVNSLALD, the protein stability index was 0.668 ± 0.017. With EGVCEIEMRGSR the protein stability index was 0.788 ± 0.021. EGVGGGRWCGRG was tested, and the protein stability index was 0.666 ± 0.055. EGVGRGCSGGCW was tested, and the protein stability index was 0.713 ± 0.055. EGYRDMAFKLCK gave a protein stability index of 0.697 ± 0.0093. Work on EHLYIYGKDKWK yielded a protein stability index of 0.602 ± 0.025. EHMEYKSMVSCA showed a protein stability index of 0.51 ± 0.059. With EHRPCQGVMYII the protein stability index was 0.522 ± 0.0026. EIDMLVVRNLKH gave a protein stability index of 0.664 ± 0.044. Sequence EIKGTQRKGGKR has a protein stability index of 0.726 ± 0.055. With EINIMKIIYRKI the protein stability index was 0.666 ± 0.044. With EIPGPLALSPAG the protein stability index was 0.736 ± 0.015. EKCCGAAVMARC showed a protein stability index of 0.561 ± 0.015. In the case of EKIRSARKKTIH, the protein stability index is reported as 0.735 ± 0.0082. EKKEKTPKPKPR gave a protein stability index of 0.685 ± 0.025. In the case of EKKKKKKKKKKK, the protein stability index is reported as 0.7721 ± 0.003. EKKKNKTKKKTN gave a protein stability index of 0.688 ± 0.056. With EKKKTKKKTIKK the protein stability index was 0.636 ± 0.03. EKQKGIVQADKI was tested, and the protein stability index was 0.665 ± 0.046. Sequence EKVRICKWKGGI has a protein stability index of 0.616 ± 0.061. EKWMRYLARCDI was tested, and the protein stability index was 0.6882 ± 0.0012. EKYELHEVEKEI showed a protein stability index of 0.597 ± 0.049. With ELHEETEKSKYR the protein stability index was 0.74 ± 0.11. ELLTVQLHKAAR was tested, and the protein stability index was 0.706 ± 0.0076. For ELRLYFPRLFQF, the protein stability index was 0.496 ± 0.0078. Work on ELSLSCPPLETP yielded a protein stability index of 0.768 ± 0.034. ELSRLLPASFSL gave a protein stability index of 0.696 ± 0.032. In the case of ELVGGEGIGGGL, the protein stability index is reported as 0.581 ± 0.024. EMCRCVEGREEG gave a protein stability index of 0.6704 ± 0.0036. In the case of ENKKKKKNIEKK, the protein stability index is reported as 0.702 ± 0.04. ENRNKSYEISRP gave a protein stability index of 0.7015 ± 0.0052. Work on EPGLIPVAGTFF yielded a protein stability index of 0.76 ± 0.011.
